Source: patent US20150045310A1 (TRUSTEES OF PRINCETON UNIVERSITY, published 2015)
Where two headings read alike, the source gives them in different places. Bridges are numbered along the chain shown (N, C = ends). Where no end group is shown, it is not given here. [ ]: non-standard residue; d: D form. eCPX = enhanced circularly permuted OmpX display scaffold; S5 = C=CCCC[C@](C)(N)C(=O)O; linker = not defined here

How the values were obtained:
[1] = target: T1, Bcl-xL (biotinylated pro-survival Bcl-2 family protein) (UniProt Q07817 1-209, biotinylated (co-expressed E. coli biotin ligase BirA)); experiment: flow cytometry of E. coli displaying the peptide on eCPX, biotinylated target + streptavidin-PE; apparent Kd
Procedure: (§1) All binding assays were performed using MC1061 strain. Briefly, a 5 mL culture of a library sample or individual variant was grown to OD₆₀₀˜0.6, and induced with arabinose (0.2%) at RT for 2.5 hours. Cells were pelleted (1 mL culture, 6000 rpm, 5 min) and resuspended in 1 mL PBS. A portion of the cell suspension (50 μL) was mixed with the desired concentration of pro-survival protein to a total volume of 500 μL. The mixture was allowed to rotate at room temperature for 1 hour for equilibrium binding. The cells were pelleted again (6000 rpm, 20 min), resuspended with 100 μL of 50 nM streptavidin-phycoerythrin (SAPE), and incubated on ice in the dark for 30 min. After a final centrifugation, the cell pellets were stored on ice and resuspended in 2 mL of PBS for flow cytometry measurements. A Partec CyFlow ML Flow Cytometer equipped with a 488 nm laser was used to analyze the cells. A FACSVantage SE cell sorter was used for cell sorting in single cell mode.
(§2) A two parameter model was used to extract apparent binding affinity (Kd) from flow cytometry binding experiments.

[2] = target: T1, Bcl-xL (biotinylated pro-survival Bcl-2 …); experiment: apparent Kd, bacterial surface display and flow cytometry
Procedure: as §1, §2

[3] = target: Bcl-2 (biotinylated pro-survival Bcl-2 family protein) (UniProt P10415 1-217, limits assumed, biotinylated (co-expressed E. coli biotin ligase BirA)); experiment: flow cytometry of E. coli displaying the peptide on eCPX, biotinylated target + streptavidin-PE; apparent Kd
Procedure: as §1, §2

[4] = target: T2, Bcl-w (biotinylated pro-survival Bcl-2 family protein) (UniProt Q92843 1-164, limits assumed, biotinylated (co-expressed E. coli biotin ligase BirA)); experiment: as above
T2 sequence (looked up): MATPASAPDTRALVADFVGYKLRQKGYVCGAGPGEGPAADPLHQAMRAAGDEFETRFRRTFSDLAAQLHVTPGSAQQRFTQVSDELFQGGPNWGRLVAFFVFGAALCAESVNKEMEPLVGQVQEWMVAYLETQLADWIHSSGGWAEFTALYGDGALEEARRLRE
Procedure: as §1, §2

[5] = target: T3, Mcl-1 (biotinylated pro-survival Bcl-2 family protein) (UniProt Q07820 171-327, limits assumed, biotinylated (co-expressed E. coli biotin ligase BirA)); experiment: as above
T3 construct: In the functional rows the target is the endogenous Mcl-1 of the human cancer cell lines
Procedure: as §1, §2

[6] = target: T1, Bcl-xL (biotinylated pro-survival Bcl-2 …); experiment: as above; remark: listed apart in the source
Procedure: as §1, §2

[7] = target: T3, Mcl-1 (biotinylated pro-survival Bcl-2 …); experiment: cell-based or functional assay
[8] = target: T3, Mcl-1 (biotinylated pro-survival Bcl-2 …); experiment: cell-based or functional assay; remark: listed apart in the source
[9] = target: T3, Mcl-1 (biotinylated pro-survival Bcl-2 …); experiment: cell-based or functional assay; remark: listed apart in the source
[10] = target: T3, Mcl-1 (biotinylated pro-survival Bcl-2 …); experiment: cell-based or functional assay; remark: listed apart in the source
[11] = target: T3, Mcl-1 (biotinylated pro-survival Bcl-2 …); experiment: cell-based or functional assay; remark: listed apart in the source
[12] = target: T3, Mcl-1 (biotinylated pro-survival Bcl-2 …); experiment: flow cytometry of E. coli displaying the peptide on eCPX, biotinylated target + streptavidin-PE; apparent Kd; remark: listed apart in the source
Procedure: as §1, §2

[13] = target: T3, Mcl-1 (biotinylated pro-survival Bcl-2 …); experiment: apparent Kd, bacterial surface display and flow cytometry
Procedure: as §1, §2

T1 sequence (Q07817 1-209): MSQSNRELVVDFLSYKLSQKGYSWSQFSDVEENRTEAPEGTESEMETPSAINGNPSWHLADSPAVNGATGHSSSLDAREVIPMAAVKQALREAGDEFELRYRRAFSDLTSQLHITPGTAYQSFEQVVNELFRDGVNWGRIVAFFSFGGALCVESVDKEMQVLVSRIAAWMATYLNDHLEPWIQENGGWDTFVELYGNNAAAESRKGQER
T3 sequence (Q07820 171-327 limits assumed): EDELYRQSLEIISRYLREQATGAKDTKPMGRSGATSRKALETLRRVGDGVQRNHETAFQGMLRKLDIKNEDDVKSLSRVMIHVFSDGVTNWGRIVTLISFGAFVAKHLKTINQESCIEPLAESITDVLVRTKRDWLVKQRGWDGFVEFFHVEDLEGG
Chain of Bcl-2 (biotinylated pro-survival Bcl-2 family protein) (P10415 1-217 limits assumed): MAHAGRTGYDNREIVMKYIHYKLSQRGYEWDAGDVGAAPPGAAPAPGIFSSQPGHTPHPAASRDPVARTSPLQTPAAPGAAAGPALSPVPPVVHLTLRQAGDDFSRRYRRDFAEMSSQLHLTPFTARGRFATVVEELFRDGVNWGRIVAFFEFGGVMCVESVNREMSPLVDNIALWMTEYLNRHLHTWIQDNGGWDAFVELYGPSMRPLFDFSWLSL

B1: Bim BH3 14-mer variant X2-3 displayed on eCPX (peptide)
peptide: WVAQWLRRWGDEFN
modifications: also: displayed as fusion to eCPX scaffold (letters not given here)
notes: Clone selected against Bcl-xL; not shown: eCPX display scaffold and the linker to it
[1]
  Kd: 9.28 nM
[2]
  fold increase in apparent affinity against wild-type Bim 14-mer: 25 fold
[3]
  Kd: 929 nM
[4]
  Kd: 5890 nM
[5]
  Kd: 1300 nM
[6]
  Kd: 9.28 nM

B2: Bim BH3 14-mer variant X2-10 displayed on eCPX (peptide)
peptide: WVAQTLRRWGDEFN-{linker-eCPX}
modifications: reading uncertain; also: printed as Trp-Val-Ala-Gln-Thr-Leu-Arg-Arg-Trp-Gly-Asp-Glu-Phe-Asn
notes: Clone selected against Bcl-xL; not shown: eCPX display scaffold and its linker, fused C-terminal to the peptide
[1]
  Kd: 17 nM

B3: stapled M2-4 peptide (peptide)
peptide: WLAQLLR[S5]IGD[S5]IN-NH2
modifications: staple 8-12; N-terminus assumed
SMILES: CC[C@H](C)[C@@H]1NC(=O)[C@@](C)(NC(=O)[C@H](CCCNC(=N)N)NC(=O)[C@H](CC(C)C)NC(=O)[C@H](CC(C)C)NC(=O)[C@H](CCC(N)=O)NC(=O)[C@H](C)NC(=O)[C@H](CC(C)C)NC(=O)[C@@H](N)Cc2c[nH]c3ccccc23)CCCC=CCCC[C@@](C)(C(=O)N[C@H](C(=O)N[C@@H](CC(N)=O)C(N)=O)[C@@H](C)CC)NC(=O)[C@H](CC(=O)O)NC(=O)CNC1=O
[7]
  IC50 (µM), MTT cytotoxicity assay, MCF7 cells: 5.7 µM
[8]
  IC50 (µM), MTT cytotoxicity assay, PC3 cells: 1.4 µM
[9]
  IC50 (µM), MTT cytotoxicity assay, MDA231 cells: 4.4 µM
[10]
  IC50 (µM), cytotoxicity, HeLa cells: 1.04 µM
  IC50 (µM), cytotoxicity, MCF7 cells: 5.72 µM
  IC50 (µM), cytotoxicity, MDA231 cells: 4.39 µM
  IC50 (µM), cytotoxicity, PC3 cells: 1.36 µM
[11]
  IC50 (µM), MTT cytotoxicity assay, HeLa cells: 1 µM

B4: stapled M2-2 peptide (peptide)
peptide: WVAQLLR[S5]IGD[S5]VN-NH2
modifications: staple 8-12; N-terminus assumed
SMILES: CC[C@H](C)[C@@H]1NC(=O)[C@@](C)(NC(=O)[C@H](CCCNC(=N)N)NC(=O)[C@H](CC(C)C)NC(=O)[C@H](CC(C)C)NC(=O)[C@H](CCC(N)=O)NC(=O)[C@H](C)NC(=O)[C@@H](NC(=O)[C@@H](N)Cc2c[nH]c3ccccc23)C(C)C)CCCC=CCCC[C@@](C)(C(=O)N[C@H](C(=O)N[C@@H](CC(N)=O)C(N)=O)C(C)C)NC(=O)[C@H](CC(=O)O)NC(=O)CNC1=O
[7]
  IC50 (µM), MTT cytotoxicity assay, MCF7 cells: 5.7 µM
[8]
  IC50 (µM), MTT cytotoxicity assay, PC3 cells: 4.7 µM
[9]
  IC50 (µM), MTT cytotoxicity assay, MDA231 cells: 3.7 µM
[11]
  IC50 (µM), MTT cytotoxicity assay, HeLa cells: 6.1 µM

B5: Bim BH3 14-mer variant M2-4 displayed on eCPX (peptide)
peptide: WLAQLLRRIGDEIN-{linker-eCPX}
modifications: reading uncertain; also: printed as Trp-Leu-Ala-Gln-Leu-Leu-Arg-Arg-Ile-Gly-Asp-Glu-Ile-Asn
notes: Clone selected against Mcl-1; not shown: eCPX display scaffold and its linker, fused C-terminal to the peptide
[12]
  Kd: 9.85 nM
[3]
  Kd: 93.7 nM
[4]
  Kd: 542 nM
[5]
  Kd: 9.85 nM
[6]
  Kd: 333 nM

B6: wild-type Bim BH3 14-mer peptide (residues 147-160) displayed on eCPX (peptide)
peptide: WIAQELRRIGDEFN-{linker-eCPX}
modifications: reading uncertain
notes: also called WT; Bim WT; not shown: eCPX (enhanced circularly permuted OmpX) display scaffold and its linker, fused C-terminal to the peptide
[12]
  Kd: 37.7 nM
[1]
  Kd: 251 nM
[3]
  Kd: 97.9 nM
[4]
  Kd: 594 nM
[5]
  Kd: 37.7 nM
[6]
  Kd: 251 nM

B7: Bim BH3 14-mer E151Q (pseudo-wild-type) displayed on eCPX (peptide)
peptide: WIAQQLRRIGDEFN
modifications: not fully specified
notes: also called pseudo-wild-type Bim; Bim E151Q; not shown: eCPX display scaffold and the linker to it
[2]
  fold increase in apparent affinity against wild-type Bim 14-mer: 5 fold
[3]
  Kd: 175 nM
[4]
  Kd: 642 nM
[5]
  Kd: 45.2 nM
[6]
  Kd: 47.4 nM

B8: Bim BH3 14-mer variant M2-1 displayed on eCPX (peptide)
peptide: WIAQLLRRIGDEVN-{linker-eCPX}
modifications: reading uncertain; also: printed as Trp-Ile-Ala-Gln-Leu-Leu-Arg-Arg-Ile-Gly-Asp-Glu-Val-Asn
notes: as for B5
[12]
  Kd: 10.3 nM

B9: Bim BH3 14-mer variant M2-2 displayed on eCPX (peptide)
peptide: WVAQLLRRIGDEVN-{linker-eCPX}
modifications: reading uncertain; also: printed as Trp-Val-Ala-Gln-Leu-Leu-Arg-Arg-Ile-Gly-Asp-Glu-Val-Asn
notes: as for B5
[12]
  Kd: 5.8 nM
[13]
  fold increase in apparent affinity against wild-type Bim 14-mer: 6 fold
[5]
  Kd: 5.8 nM
[6]
  Kd: 2800 nM

B10: Bim BH3 14-mer E151L displayed on eCPX (peptide)
peptide: WIAQLLRRIGDEFN
notes: also called Bim E151L; pSZ55; not shown: eCPX display scaffold and the linker to it
[13]
  fold increase in apparent affinity against wild-type Bim 14-mer: 2 fold

B11: Bim BH3 14-mer E151I displayed on eCPX (peptide)
peptide: WIAQILRRIGDEFN
notes: also called E1511; Bim E151I; not shown: eCPX display scaffold and the linker to it
[13]
  fold increase in apparent affinity against wild-type Bim 14-mer: 2 fold

B12: Bim BH3 14-mer variant M2-3 displayed on eCPX (peptide)
peptide: WMAQILRRIGDEVN-{linker-eCPX}
modifications: reading uncertain; also: printed as Trp-Met-Ala-Gln-Ile-Leu-Arg-Arg-Ile-Gly-Asp-Glu-Val-Asn
notes: as for B5
[12]
  Kd: 11.5 nM

B13: Bim BH3 14-mer variant X2-8 displayed on eCPX (peptide)
peptide: WLAQLLRRYGDEFN
modifications: also: displayed as fusion to eCPX scaffold (letters not given here)
notes: as for B1
[1]
  Kd: 17.8 nM
[3]
  Kd: 2350 nM
[4]
  Kd: 946 nM
[5]
  Kd: 2580 nM
[6]
  Kd: 17.8 nM
